Assay results from patent US20240254229A1 (Molecular Partners, published 2024).

T1: extracellular domain of human CD70 (SEQ ID NO: 89), hCD70-Fc-trimer, ACRO Biosystems (human, UniProt P32970 52-193, chemically biotinylated where the biotinylated form was used)
T1 construct: also called human CD70-Fc-trimer; Bio.CD70
T1 sequence: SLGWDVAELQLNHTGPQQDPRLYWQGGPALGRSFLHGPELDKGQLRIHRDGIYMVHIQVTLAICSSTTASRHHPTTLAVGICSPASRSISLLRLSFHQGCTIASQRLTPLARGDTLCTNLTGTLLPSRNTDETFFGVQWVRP

T2: biotinylated extracellular domain of human CD123 (SEQ ID NO: 88), Fc and Avi tagged (human, UniProt P26951 19-303, biotinylated with BirA-GST (Avi tag))
T2 construct: also called hCD123
T2 sequence: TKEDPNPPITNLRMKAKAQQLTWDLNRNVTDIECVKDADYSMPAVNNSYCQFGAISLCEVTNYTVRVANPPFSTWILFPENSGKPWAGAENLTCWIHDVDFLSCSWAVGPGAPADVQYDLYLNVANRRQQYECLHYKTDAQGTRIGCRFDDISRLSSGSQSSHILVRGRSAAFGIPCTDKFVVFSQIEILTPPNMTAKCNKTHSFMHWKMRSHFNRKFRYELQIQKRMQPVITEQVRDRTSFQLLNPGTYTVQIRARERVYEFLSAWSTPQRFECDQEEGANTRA

B1: DARPin® protein #58 (designed binder)
chain: DLGKKLLEAARAGQDDEVRELLKAGADVNAKDYFSHTPLHLAARNGHLKIVEVLLKAGADVNAKDFAGKTPLHLAAADGHLEIVEVLLKAGADVNAQDIFGKTPADIAADAGHEDIAEVLQKAAGSPTPTPTTPTPTPTTPTPTPTGSDLGKKLLEAARAGQDDEVRELLKAGADVNAKDYFSHTPLHLAARNGHLKIVEVLLKAGADVNAKDFAGKTPLHLAAADGHLEIVEVLLKAGADVNAQDIFGKTPADIAADAGHEDIAEVLQKAAGSPTPTPTTPTPTPTTPTPTPTGSDLGIKLLTAAYDGQLDEVRILLKAGADVNAKDLRGQTPLHYAAGLGHLEIVEVLLKAGADVNAKDLHGWTPLHLAAWSGHLEIVEVLLKAGADVNAQDVEGVTPADLAAVQGHQDIAEVLQKAAGSPTPTPTTPTPTPTTPTPTPTGSDLGWKLLDAAEIGQLDEVRILLKAGADVNAKDKQGITPLHIAAAHGHLEIVEVLLKAGADVNAKDEIGRTPLHLAAFKGHLEIVEVLLKAGADVNAQDIIGETPADLAAVRGHQDIAEVLQKAAGSPTPTPTTPTPTPTTPTPTPTGSDLGVKLLLAAERGQLDEVRILLKAGADVNAKDIAEGYTPLHIAAYQGHLEIVEVLLKAGADVNAKDRYGKTPLHLAAIGGHLEIVEVLLKAGADVNAQDNKGSTPADLAADYGHQDIAEVLQKAAGSPTGSDLGQKLLEAAWAGQDDEVRELLKAGADVNAKNSRGWTPLHTAAQTGHLEIFEVLLKAGADVNAKNDKRVTPLHLAAALGHLEIVEVLLKAGADVNARDSWGTTPADLAAKYGHQDIAEVLQKAA
notes: HSA-HSA-CD70-CD123-CD33-CD3
B2: DARPin® protein #55 (designed binder)
chain: MRGSHHHHHHDLGYKLLQAAYDGQLDEVRILLKAGADVNAKDSRGQTPLHYAASIGHLEIVEVLLKAGADVNAKDDHGWTPLHLAAWSGHLEIVEVLLKAGADVNAQDQEGTTPADLAAVQGHQDIAEVLQKAAGSPTPTPTTPTPTPTTPTPTPTGSDLGKKLLEAALEGQLDEVRELLKAGADVNAKDQEGYTPLHLAAALGHLEIVEVLLKAGADVNAKDSIGRTPLHLAAYKGHLEIVEVLLKAGADVNAQDLLGETPADLAAEQGHQDIAEVLQKAAGSPTPTPTTPTPTPTTPTPTPTGSDLGVKLLRAAVHGQLDEVRILLKAGADVNAKDTDGETPLHYAAQFGHLEIVEVLLKAGADVNAKDAYGATPLHWAAWHGHLEIVEVLLKAGADVNAQDVSGATPADLAAKVGHQDIAEVLQKAAGSPTPTPTTPTPTPTTPTPTPTGSDLGQKLLEAAWAGQDDEVRELLKAGADVNAKNSRGWTPLHTAAQTGHLEIFEVLLKAGADVNAKDDKGVTPLHLAAALGHLEIVEVLLKAGADVNAQDSWGTTPADLAAKYGHEDIAEVLQKAAGSPTPTPTTPTPTPTTPTPTPTGSDLGKKLLEAARAGQDDEVRELLKAGADVNAKDYFSHTPLHLAARNGHLKIVEVLLKAGADVNAKDFAGKTPLHLAAADGHLEIVEVLLKAGADVNAQDIFGKTPADIAADAGHEDIAEVLQKAA
notes: CD70-CD123-CD33-CD3-HSA
B3: DARPin® protein #60 (designed binder)
chain: DLGKKLLEAARAGQDDEVRELLKAGADVNAKDYFSHTPLHLAARNGHLKIVEVLLKAGADVNAKDFAGKTPLHLAAADGHLEIVEVLLKAGADVNAQDIFGKTPADIAADAGHEDIAEVLQKAAGSPTPTPTTPTPTPTTPTPTPTGSDLGKKLLEAARAGQDDEVRELLKAGADVNAKDYFSHTPLHLAARNGHLKIVEVLLKAGADVNAKDFAGKTPLHLAAADGHLEIVEVLLKAGADVNAQDIFGKTPADIAADAGHEDIAEVLQKAAGSPTPTPTTPTPTPTTPTPTPTGSDLGIKLLTAAYDGQLDEVRILLKAGADVNAKDLRGQTPLHYAAGLGHLEIVEVLLKAGADVNAKDLHGWTPLHLAAWSGHLEIVEVLLKAGADVNAQDVEGVTPADLAAVQGHQDIAEVLQKAAGSPTPTPTTPTPTPTTPTPTPTGSDLGKKLLQAARAGQLDEVRELLKAGADVNAKDQYGRTPLHLAAIKGHLEIVEVLLKAGADVNAKDSLGYTPLHLAAVEGPLEIVEVLLKAGADVNAKDAYGQTPLHIAAAWGHLEIVEVLLKAVADVNAQDKSGKTPADLAARAGHQDIAEVLQKAAGSPTPTPTTPTPTPTTPTPTPTGSDLGVKLLLAAERGQLDEVRILLKAGADVNAKDIAEGYTPLHIAAYQGHLEIVEVLLKAGADVNAKDRYGKTPLHLAAIGGHLEIVEVLLKAGADVNAQDNKGSTPADLAADYGHQDIAEVLQKAAGSPTGSDLGQKLLEAAWAGQDDEVRELLKAGADVNAKNSRGWTPLHTAAQTGHLEIFEVLLKAGADVNAKNDKRVTPLHLAAALGHLEIVEVLLKAGADVNARDSWGTTPADLAAKYGHQDIAEVLQKAA
notes: HSA-HSA-CD70-CD123-CD33-CD3
B4: DARPin® protein #59 (designed binder)
chain: DLGKKLLEAARAGQDDEVRELLKAGADVNAKDYFSHTPLHLAARNGHLKIVEVLLKAGADVNAKDFAGKTPLHLAAADGHLEIVEVLLKAGADVNAQDIFGKTPADIAADAGHEDIAEVLQKAAGSPTPTPTTPTPTPTTPTPTPTGSDLGKKLLEAARAGQDDEVRELLKAGADVNAKDYFSHTPLHLAARNGHLKIVEVLLKAGADVNAKDFAGKTPLHLAAADGHLEIVEVLLKAGADVNAQDIFGKTPADIAADAGHEDIAEVLQKAAGSPTPTPTTPTPTPTTPTPTPTGSDLGIKLLTAAYDGQLDEVRILLKAGADVNAKDLRGQTPLHYAAGLGHLEIVEVLLKAGADVNAKDLHGWTPLHLAAWSGHLEIVEVLLKAGADVNAQDVEGVTPADLAAVQGHQDIAEVLQKAAGSPTPTPTTPTPTPTTPTPTPTGSDLGKKLLEAALEGQLDEVRELLKAGADVNAKDQEGYTPLHLAAALGHLEIVEVLLKAGADVNAKDQIGRTPLHLAAYKGHLEIVEVLLKAGADVNAQDIIGQTPADLAAQRGHQDIAEVLQKAAGSPTPTPTTPTPTPTTPTPTPTGSDLGVKLLLAAERGQLDEVRILLKAGADVNAKDIAEGYTPLHIAAYQGHLEIVEVLLKAGADVNAKDRYGKTPLHLAAIGGHLEIVEVLLKAGADVNAQDNKGSTPADLAADYGHQDIAEVLQKAAGSPTGSDLGQKLLEAAWAGQDDEVRELLKAGADVNAKNSRGWTPLHTAAQTGHLEIFEVLLKAGADVNAKNDKRVTPLHLAAALGHLEIVEVLLKAGADVNARDSWGTTPADLAAKYGHQDIAEVLQKAA
notes: HSA-HSA-CD70-CD123-CD33-CD3

Assays:
[1] = target: T3, Molm-13 N1 tumor cells (carrying CD123, CD33 and CD70) (human, UniProt P20138 18-364; P26951 19-378; P32970 1-193); assay: flow cytometry on Molm-13 N1 cells, 20 uM HSA
T3 construct: whole, on cells; Not a complex: three separate antigens on one cell; also called Molm-13 N1 cells
Description: The determination of binding of several multispecific proteins to tumor cells was performed by Fluorescence Activated Cell Sorting (FACS) flow cytometry. Therefore, tumor cells (Molm-13 N1), were seeded at 100′000 cells per well in a 96 well plate. DARPin® protein #56, DARPin® protein #57, DARPin® protein #58, DARPin® protein #59, DARPin® protein #60, DARPin® protein #61 and DARPin® protein #62 were titrated down starting at 100 nM in 1:5 dilution ratio. Tumor cells were resuspended with diluted DARPin® proteins and incubated 60 minutes at 4° C. The assay was performed in PBS including 2% fetal bovine serum and human serum albumin 20 uM (HSA). After washing twice with Phosphate Buffer saline (PBS), DARPin® protein specific tumor cell binding was detected by adding unlabelled primary […] (anti-rabbit 1-1-1 antibody, CePower) at 2 ug/ml. An incubation step of at least 30 minutes at 4° C. followed. Afterwards, cells were washed with PBS and a secondary anti-rabbit antibody labelled with Alexa Fluor 647 antibody (ThermoFisher) at 2 ug/ml was added. The same incubation conditions applied. Finally, the cells were washed twice and resuspended in Cytofix fixation buffer (BD Biosciences) for 15 min at room temperature (RT). Median fluorescence intensities (MFI) of Alexa Fluor 647 DARPin® labelled cells were measured by Attune NxT (Thermo Fisher) using FlowJo software for analyses and GraphPad Prism 8 for data plotting.

[2] = target: T1, extracellular domain of human CD70 (SEQ …); assay: SPR (ProteOn XPR36), target on GLC chip, DARPin as analyte
Source text: (§1) For that, DARPin® protein #27, DARPin® protein #29, DARPin® protein #47 and DARPin® protein #48 and DARPin® protein #49, DARPin® protein #50, DARPin® protein #51, DARPin® protein #52, DARPin® protein #31, DARPin® protein #53, DARPin® protein #54, DARPin® protein #55, DARPin® protein #34, DARPin® protein #33, DARPin® protein #39 and DARPin® protein #36 were subcloned and expressed as described above into derivatives of the pQE30 (Qiagen) expression vector, containing an N-terminal His-tag, CD33, CD123 and/or CD70 binding ankyrin repeat domains, followed by a CD3 specific ankyrin repeat domain and for some constructs by a human serum albumin specific ankyrin repeat domain.
(§2) Briefly, biotinylated human CD70, CD123 and CD33 was diluted in PBST (PBS, pH 7.4 containing 0.005% Tween 20®) and coated on a GLC chip (BioRad) to a level of around 200, 460 and 450 resonance units (RU) respectively. HSA in NaOAc pH 5.0 was directly immobilized on the GLC chip to a level of 800 RU. Bio.CD70, bio. CD33 and bio. CD123 required to have Neutravidin coated first to a level of 6000 RU before the biotinylated targets could be applied. The interaction of the selected ankyrin repeat proteins and human CD70, CD123 and CD33 was then measured by injecting 300 μl running buffer (PBS, pH 7.4 containing 0.005% Tween 20®) containing serial dilutions of ankyrin repeat proteins covering a concentration range between 100 nM and 2.6 nM (100, 40, 16, 6.4 and 2.6 nM respectively) for multi-trace SPR measurements, with an association of 120 s and dissociation of 1200 s using a constant flow of 100 μl/min. The regeneration was performed using 30 μl of 4 mM Glycine pH 2. The signals (i.e. resonance unit (RU) values) of the interspots and a reference injection (i.e. injection of running buffer only) were subtracted from the RU traces obtained after injection of ankyrin repeat protein (double-referencing).

[3] = target: T2, biotinylated extracellular domain of …; assay: as above
Source text: as §1, §2

[4] = target: T4, biotinylated extracellular domain of human CD33 (SEQ ID NO: 87), Fc and Avi tagged (human, UniProt P20138 18-259, biotinylated with BirA-GST (Avi tag)); assay: as above
T4 construct: also called hCD33; human target hCD33
Source text: as §1, §2

[5] = target: T5, human serum albumin (human, UniProt P02768 25-609); assay: as above
T5 construct: also called HSA; SA
Source text: as §1, §2

T3 sequence (P20138 18-364, one chain of several): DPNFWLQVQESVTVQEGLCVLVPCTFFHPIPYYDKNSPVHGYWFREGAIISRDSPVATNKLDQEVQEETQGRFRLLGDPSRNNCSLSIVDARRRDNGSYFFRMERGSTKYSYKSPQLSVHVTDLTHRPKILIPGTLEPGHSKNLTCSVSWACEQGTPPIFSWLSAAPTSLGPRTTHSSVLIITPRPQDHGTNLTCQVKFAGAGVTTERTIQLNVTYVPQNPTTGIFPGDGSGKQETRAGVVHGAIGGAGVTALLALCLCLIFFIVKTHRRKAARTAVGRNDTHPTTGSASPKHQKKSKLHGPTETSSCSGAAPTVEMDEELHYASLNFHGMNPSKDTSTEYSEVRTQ
T4 sequence (P20138 18-259 R69G): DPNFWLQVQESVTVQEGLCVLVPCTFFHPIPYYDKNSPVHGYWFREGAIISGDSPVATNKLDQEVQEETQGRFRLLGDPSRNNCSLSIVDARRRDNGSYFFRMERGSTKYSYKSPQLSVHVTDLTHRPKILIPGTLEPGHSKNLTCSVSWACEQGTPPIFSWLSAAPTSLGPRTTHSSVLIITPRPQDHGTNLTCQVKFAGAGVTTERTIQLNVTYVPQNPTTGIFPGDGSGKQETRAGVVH
T5 sequence (P02768 25-609 limits assumed): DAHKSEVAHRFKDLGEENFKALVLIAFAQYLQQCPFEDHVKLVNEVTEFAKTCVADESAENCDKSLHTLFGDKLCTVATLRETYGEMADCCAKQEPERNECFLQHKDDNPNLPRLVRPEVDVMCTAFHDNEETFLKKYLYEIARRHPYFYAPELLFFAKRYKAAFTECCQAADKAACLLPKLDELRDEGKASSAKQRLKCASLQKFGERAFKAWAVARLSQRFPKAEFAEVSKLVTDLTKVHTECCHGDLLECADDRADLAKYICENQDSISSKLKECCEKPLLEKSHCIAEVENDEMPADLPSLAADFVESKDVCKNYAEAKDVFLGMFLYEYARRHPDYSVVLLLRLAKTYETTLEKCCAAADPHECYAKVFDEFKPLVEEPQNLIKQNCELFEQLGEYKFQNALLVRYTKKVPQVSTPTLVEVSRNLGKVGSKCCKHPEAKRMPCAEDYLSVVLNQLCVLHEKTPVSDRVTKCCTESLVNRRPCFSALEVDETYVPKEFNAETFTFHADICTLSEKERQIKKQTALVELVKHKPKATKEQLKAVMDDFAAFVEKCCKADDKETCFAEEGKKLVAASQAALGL

Row | Binder | EC50 [1] [nM] | Kd [2] [nM] | Kd [3] [nM] | Kd [4] [nM] | Kd [5] [nM]
1 | B1 | 0.17 |  |  |  | 
2 | B2 |  | 0.38 | 13 | 9.6 | 7.5
3 | B3 | 0.16 |  |  |  | 
4 | B4 | 0.19 |  |  |  | 
